Measurements published in publication PMC5787697, “Transcriptome-wide identification of the RNA-binding landscape of the chromatin-associated protein PARP1 reveals functions in RNA biogenesis”.

Assays:
PARP1-ΔWGR [1] = target: T1, PARP1-ΔWGR (human, UniProt P09874 1-1014, del518-654); test: EMSA; monomer-equivalent K, n=1.04±0.11; 25 mM Tris pH 7.5, 75 mM NaCl, 50 mM arginine, 0.1 mM TCEP, 0.1 ug/ul BSA, room temperature 30 min; 0.05 uM probe, 0-2.5 uM protein; native 10% PAGE in TBE; conditions: protein: recombinant; tags: His; chain copies: 2; label: 32P; single strand
PARP1-ΔBRCT [2] = target: T2, PARP1-ΔBRCT (human, UniProt P09874 1-1014, del367-494); test: EMSA; monomer-equivalent K, n=2.23±0.10; 25 mM Tris pH 7.5, 75 mM NaCl, 50 mM arginine, 0.1 mM TCEP, 0.1 ug/ul BSA, room temperature 30 min; 0.05 uM probe, 0-2.5 uM protein; native 10% PAGE in TBE; conditions: protein: recombinant; tags: His; chain copies: 2; label: 32P; single strand
PARP1-ΔZn3 [3] = target: T3, PARP1-ΔZn3 (human, UniProt P09874 1-1014, del232-374); test: EMSA; monomer-equivalent K, n=1.41±0.08; 25 mM Tris pH 7.5, 75 mM NaCl, 50 mM arginine, 0.1 mM TCEP, 0.1 ug/ul BSA, room temperature 30 min; 0.05 uM probe, 0-2.5 uM protein; native 10% PAGE in TBE; conditions: protein: recombinant; tags: His; chain copies: 2; label: 32P; single strand
PARP1-ΔZn3 [4] = target: T3, PARP1-ΔZn3; test: EMSA; lowest affinity, within 2-3 fold of FL; Table 2 value not in material; 25 mM Tris pH 7.5, 75 mM NaCl, 50 mM arginine, 0.1 mM TCEP, 0.1 ug/ul BSA, room temperature 30 min; 0.05 uM probe, 0-2.5 uM protein; native 10% PAGE in TBE; conditions: protein: recombinant; tags: His; chain copies: 2; label: 5'-32P; single strand
PARP1-ΔBRCT [5] = target: T2, PARP1-ΔBRCT; test: EMSA; Table 2 value not in material; 25 mM Tris pH 7.5, 75 mM NaCl, 50 mM arginine, 0.1 mM TCEP, 0.1 ug/ul BSA, room temperature 30 min; 0.05 uM probe, 0-2.5 uM protein; native 10% PAGE in TBE; conditions: protein: recombinant; tags: His; chain copies: 2; label: 5'-32P; single strand
PARP1-ΔWGR [6] = target: T1, PARP1-ΔWGR; test: EMSA; affinity not significantly changed from FL; Table 2 value not in material; 25 mM Tris pH 7.5, 75 mM NaCl, 50 mM arginine, 0.1 mM TCEP, 0.1 ug/ul BSA, room temperature 30 min; 0.05 uM probe, 0-2.5 uM protein; native 10% PAGE in TBE; conditions: protein: recombinant; tags: His; chain copies: 2; label: 5'-32P; single strand
PARP1-ΔWGR [7] = target: T1, PARP1-ΔWGR; test: competition EMSA; vs N1 in same reaction; 25 mM Tris pH 7.5, 75 mM NaCl, 50 mM arginine, 0.1 mM TCEP, 0.1 ug/ul BSA, room temperature 30 min; 0.05 uM probe, 0-2.5 uM protein; native 10% PAGE in TBE; conditions: protein: recombinant; tags: His; label: 32P; single strand
PARP1-ΔBRCT [8] = target: T2, PARP1-ΔBRCT; test: as above; conditions: protein: recombinant; tags: His; label: 32P; single strand
PARP1-ΔZn3 [9] = target: T3, PARP1-ΔZn3; test: as above; conditions: protein: recombinant; tags: His; label: 32P; single strand
PARP1-ΔWGR [10] = target: T1, PARP1-ΔWGR; test: EMSA; monomer-equivalent K, n=2.13±0.07; 25 mM Tris pH 7.5, 75 mM NaCl, 50 mM arginine, 0.1 mM TCEP, 0.1 ug/ul BSA, room temperature 30 min; 0.05 uM probe, 0-2.5 uM protein; native 10% PAGE in TBE; conditions: protein: recombinant; tags: His; chain copies: 2; label: 32P; single strand
PARP1-ΔZn3 [11] = target: T3, PARP1-ΔZn3; test: EMSA; monomer-equivalent K, n=2.17±0.12; 25 mM Tris pH 7.5, 75 mM NaCl, 50 mM arginine, 0.1 mM TCEP, 0.1 ug/ul BSA, room temperature 30 min; 0.05 uM probe, 0-2.5 uM protein; native 10% PAGE in TBE; conditions: protein: recombinant; tags: His; chain copies: 2; label: 32P; single strand
PARP1-ΔBRCT [12] = target: T2, PARP1-ΔBRCT; test: EMSA; monomer-equivalent K, n=1.94±0.11; 25 mM Tris pH 7.5, 75 mM NaCl, 50 mM arginine, 0.1 mM TCEP, 0.1 ug/ul BSA, room temperature 30 min; 0.05 uM probe, 0-2.5 uM protein; native 10% PAGE in TBE; conditions: protein: recombinant; tags: His; chain copies: 2; label: 32P; single strand

T3 sequence (P09874 other isoform, or with tags, fused parts or gaps del232-374 | mutant): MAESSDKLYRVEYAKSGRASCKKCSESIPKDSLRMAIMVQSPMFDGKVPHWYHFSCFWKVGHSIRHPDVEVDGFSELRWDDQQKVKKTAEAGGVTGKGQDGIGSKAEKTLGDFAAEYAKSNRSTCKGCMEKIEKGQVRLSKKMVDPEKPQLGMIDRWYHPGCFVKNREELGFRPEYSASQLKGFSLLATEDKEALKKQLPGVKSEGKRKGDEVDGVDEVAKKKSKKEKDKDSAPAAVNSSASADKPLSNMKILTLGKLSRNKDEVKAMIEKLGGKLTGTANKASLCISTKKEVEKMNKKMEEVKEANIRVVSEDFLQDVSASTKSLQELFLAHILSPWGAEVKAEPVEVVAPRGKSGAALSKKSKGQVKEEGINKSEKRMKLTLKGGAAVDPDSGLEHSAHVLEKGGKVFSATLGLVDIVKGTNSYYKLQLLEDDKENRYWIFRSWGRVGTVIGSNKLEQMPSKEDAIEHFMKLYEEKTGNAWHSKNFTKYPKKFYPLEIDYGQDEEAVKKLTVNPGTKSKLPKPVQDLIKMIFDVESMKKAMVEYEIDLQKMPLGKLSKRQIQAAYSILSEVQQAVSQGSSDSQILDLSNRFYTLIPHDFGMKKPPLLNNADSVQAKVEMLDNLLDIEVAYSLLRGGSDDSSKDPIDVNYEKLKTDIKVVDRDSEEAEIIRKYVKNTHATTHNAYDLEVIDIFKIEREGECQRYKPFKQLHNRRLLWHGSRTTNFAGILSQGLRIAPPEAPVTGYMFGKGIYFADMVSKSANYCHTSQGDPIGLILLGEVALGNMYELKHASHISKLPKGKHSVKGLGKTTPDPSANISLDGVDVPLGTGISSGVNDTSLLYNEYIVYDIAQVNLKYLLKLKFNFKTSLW
T1 sequence (P09874 other isoform, or with tags, fused parts or gaps del518-654 | mutant): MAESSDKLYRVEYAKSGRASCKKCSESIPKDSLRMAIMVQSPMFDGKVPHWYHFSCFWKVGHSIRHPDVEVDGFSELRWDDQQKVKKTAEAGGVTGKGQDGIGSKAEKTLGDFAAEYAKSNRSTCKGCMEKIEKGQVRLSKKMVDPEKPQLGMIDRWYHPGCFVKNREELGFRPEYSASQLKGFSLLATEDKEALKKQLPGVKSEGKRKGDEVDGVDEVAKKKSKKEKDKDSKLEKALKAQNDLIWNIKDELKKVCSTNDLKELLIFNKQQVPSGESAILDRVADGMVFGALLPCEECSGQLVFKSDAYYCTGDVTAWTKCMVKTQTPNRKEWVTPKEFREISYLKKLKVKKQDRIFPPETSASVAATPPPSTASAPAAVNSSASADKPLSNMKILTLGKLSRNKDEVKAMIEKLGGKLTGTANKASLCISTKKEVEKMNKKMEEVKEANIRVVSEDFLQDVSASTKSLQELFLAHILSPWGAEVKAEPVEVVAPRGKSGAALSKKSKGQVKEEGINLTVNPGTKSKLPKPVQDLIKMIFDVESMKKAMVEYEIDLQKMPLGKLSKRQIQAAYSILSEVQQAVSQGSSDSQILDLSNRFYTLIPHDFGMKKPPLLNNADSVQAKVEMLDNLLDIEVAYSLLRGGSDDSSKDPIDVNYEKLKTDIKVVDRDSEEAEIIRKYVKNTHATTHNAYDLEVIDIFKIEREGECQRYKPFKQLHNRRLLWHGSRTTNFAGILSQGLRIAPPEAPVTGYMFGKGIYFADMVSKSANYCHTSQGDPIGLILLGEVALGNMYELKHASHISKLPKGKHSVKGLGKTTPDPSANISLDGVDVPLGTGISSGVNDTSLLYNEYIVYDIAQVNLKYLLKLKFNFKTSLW
T2 sequence (P09874 other isoform, or with tags, fused parts or gaps del367-494 | mutant): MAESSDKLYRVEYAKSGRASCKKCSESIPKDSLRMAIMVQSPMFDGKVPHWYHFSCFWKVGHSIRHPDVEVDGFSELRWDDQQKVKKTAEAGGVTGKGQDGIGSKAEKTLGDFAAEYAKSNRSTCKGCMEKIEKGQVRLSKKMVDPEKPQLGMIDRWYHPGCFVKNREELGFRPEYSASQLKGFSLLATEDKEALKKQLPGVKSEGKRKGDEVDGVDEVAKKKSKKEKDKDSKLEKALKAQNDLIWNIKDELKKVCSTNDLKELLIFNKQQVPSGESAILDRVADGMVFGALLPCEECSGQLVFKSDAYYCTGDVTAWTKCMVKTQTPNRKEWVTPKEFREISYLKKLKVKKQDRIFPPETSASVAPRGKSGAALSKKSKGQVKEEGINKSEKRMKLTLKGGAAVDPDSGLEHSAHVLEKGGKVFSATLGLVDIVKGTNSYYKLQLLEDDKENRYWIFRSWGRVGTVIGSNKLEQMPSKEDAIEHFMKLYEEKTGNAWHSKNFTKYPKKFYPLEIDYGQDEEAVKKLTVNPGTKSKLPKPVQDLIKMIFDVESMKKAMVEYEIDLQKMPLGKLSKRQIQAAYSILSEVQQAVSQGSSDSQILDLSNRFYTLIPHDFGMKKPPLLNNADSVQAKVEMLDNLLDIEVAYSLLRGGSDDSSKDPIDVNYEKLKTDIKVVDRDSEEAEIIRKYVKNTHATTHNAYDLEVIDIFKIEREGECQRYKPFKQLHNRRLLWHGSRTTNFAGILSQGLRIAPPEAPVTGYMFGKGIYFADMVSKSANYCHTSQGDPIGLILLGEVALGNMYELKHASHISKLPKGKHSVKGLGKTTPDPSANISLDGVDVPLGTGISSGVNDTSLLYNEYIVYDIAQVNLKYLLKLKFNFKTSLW

B1: 24-mer ssRNA (ssRNA)
RNA: CGUACGCGGAAUAGUUUAAACUGU
PARP1-ΔWGR [1]
  Ka: 3.4e+06 M⁻¹
PARP1-ΔBRCT [2]
  Ka: 2.38e+06 M⁻¹
PARP1-ΔZn3 [3]
  Ka: 1.86e+06 M⁻¹

B2: 19-mer ssRNA (ssRNA)
RNA: UAGGCACCGGCAUCUUGAC
PARP1-ΔZn3 [4]
  binding result: binds
PARP1-ΔBRCT [5]
  binding result: binds
PARP1-ΔWGR [6]
  binding result: binds

B3: 19-mer ssDNA (ssDNA)
DNA: TAGGCACCGGCATCTTGAC
PARP1-ΔWGR [7]
  binding signal: 26.5 ± 2.4 KDNA/KRNA
PARP1-ΔBRCT [8]
  binding signal: 42.3 ± 1.2 KDNA/KRNA
PARP1-ΔZn3 [9]
  binding signal: 23.1 ± 5.2 KDNA/KRNA

B4: 20-mer ssRNA (ssRNA)
RNA: CCGUACGCGGGUUUAAACGA
PARP1-ΔWGR [10]
  Ka: 1.46e+06 M⁻¹
PARP1-ΔZn3 [11]
  Ka: 1.3e+06 M⁻¹
PARP1-ΔBRCT [12]
  Ka: 1.19e+06 M⁻¹
